Key:
[1] = target: SHP2-C SH2; experiment: SH2 binding enrichment of the phosphorylated peptide, bacterial display (enrichment ratio); higher = better substrate or ligand; peptides without Tyr show the background
[2] = target: c-Src SH2; experiment: as above
[3] = target: Grb2 SH2 (UniProt P62993); experiment: as above
[4] = target: EPHB2 (UniProt P29323); experiment: phosphorylation enrichment, bacterial display (enrichment ratio); higher = better substrate or ligand; peptides without Tyr show the background
Sequence of EPHB2 (P29323 whole entry, looked up): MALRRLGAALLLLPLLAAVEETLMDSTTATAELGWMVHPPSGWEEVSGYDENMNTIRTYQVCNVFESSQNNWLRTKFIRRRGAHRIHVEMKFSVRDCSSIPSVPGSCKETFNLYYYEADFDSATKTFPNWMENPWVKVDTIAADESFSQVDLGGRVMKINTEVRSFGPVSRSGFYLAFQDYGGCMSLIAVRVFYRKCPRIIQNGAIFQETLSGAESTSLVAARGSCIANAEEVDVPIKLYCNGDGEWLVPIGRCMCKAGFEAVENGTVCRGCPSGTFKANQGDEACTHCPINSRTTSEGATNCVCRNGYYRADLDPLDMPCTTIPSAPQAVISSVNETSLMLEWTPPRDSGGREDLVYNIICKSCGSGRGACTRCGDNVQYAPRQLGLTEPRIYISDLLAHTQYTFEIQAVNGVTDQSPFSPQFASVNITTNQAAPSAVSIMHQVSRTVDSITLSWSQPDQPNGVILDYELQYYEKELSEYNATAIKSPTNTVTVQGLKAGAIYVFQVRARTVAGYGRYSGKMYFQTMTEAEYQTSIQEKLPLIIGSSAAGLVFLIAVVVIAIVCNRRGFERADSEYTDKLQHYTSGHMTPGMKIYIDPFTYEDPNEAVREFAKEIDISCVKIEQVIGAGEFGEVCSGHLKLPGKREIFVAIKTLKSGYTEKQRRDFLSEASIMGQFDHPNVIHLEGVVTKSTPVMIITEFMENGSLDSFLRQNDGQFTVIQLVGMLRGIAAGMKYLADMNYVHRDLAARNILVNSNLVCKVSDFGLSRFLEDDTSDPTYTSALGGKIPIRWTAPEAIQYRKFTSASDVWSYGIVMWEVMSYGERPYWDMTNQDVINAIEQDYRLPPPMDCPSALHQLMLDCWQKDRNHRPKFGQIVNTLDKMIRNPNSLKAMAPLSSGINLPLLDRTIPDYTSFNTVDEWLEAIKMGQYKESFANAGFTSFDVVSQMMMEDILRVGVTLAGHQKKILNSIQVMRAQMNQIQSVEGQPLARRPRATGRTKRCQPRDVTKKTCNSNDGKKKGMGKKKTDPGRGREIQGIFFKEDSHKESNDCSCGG

[5] = target: Fes (UniProt P07332); experiment: as above
Sequence of Fes (P07332 whole entry, looked up): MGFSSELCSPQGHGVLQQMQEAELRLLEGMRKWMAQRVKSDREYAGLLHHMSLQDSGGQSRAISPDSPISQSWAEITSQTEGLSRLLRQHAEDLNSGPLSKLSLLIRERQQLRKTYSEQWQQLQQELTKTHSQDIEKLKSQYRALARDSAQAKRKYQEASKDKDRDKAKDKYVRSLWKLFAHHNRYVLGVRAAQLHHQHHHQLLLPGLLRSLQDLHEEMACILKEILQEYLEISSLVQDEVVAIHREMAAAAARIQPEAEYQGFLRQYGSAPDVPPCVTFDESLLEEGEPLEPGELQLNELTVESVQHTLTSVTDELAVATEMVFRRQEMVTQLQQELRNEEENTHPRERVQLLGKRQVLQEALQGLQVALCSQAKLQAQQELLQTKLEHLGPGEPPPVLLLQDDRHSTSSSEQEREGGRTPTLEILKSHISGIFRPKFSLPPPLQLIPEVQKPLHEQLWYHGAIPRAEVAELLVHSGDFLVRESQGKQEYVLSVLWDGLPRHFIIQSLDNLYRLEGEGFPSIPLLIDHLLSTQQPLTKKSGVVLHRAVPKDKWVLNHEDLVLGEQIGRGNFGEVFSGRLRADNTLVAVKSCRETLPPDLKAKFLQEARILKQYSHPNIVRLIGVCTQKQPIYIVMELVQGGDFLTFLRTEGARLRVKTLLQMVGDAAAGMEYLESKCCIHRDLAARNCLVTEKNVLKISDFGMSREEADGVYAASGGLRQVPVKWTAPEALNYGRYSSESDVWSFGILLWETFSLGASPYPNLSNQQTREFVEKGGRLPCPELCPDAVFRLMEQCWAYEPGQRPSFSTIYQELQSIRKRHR

[6] = test system: c-Src; experiment: as above
[7] = test system: AncSZ; experiment: as above
[8] = target: EPHB1 (UniProt P54762); experiment: as above
Sequence of EPHB1 (P54762 whole entry, looked up): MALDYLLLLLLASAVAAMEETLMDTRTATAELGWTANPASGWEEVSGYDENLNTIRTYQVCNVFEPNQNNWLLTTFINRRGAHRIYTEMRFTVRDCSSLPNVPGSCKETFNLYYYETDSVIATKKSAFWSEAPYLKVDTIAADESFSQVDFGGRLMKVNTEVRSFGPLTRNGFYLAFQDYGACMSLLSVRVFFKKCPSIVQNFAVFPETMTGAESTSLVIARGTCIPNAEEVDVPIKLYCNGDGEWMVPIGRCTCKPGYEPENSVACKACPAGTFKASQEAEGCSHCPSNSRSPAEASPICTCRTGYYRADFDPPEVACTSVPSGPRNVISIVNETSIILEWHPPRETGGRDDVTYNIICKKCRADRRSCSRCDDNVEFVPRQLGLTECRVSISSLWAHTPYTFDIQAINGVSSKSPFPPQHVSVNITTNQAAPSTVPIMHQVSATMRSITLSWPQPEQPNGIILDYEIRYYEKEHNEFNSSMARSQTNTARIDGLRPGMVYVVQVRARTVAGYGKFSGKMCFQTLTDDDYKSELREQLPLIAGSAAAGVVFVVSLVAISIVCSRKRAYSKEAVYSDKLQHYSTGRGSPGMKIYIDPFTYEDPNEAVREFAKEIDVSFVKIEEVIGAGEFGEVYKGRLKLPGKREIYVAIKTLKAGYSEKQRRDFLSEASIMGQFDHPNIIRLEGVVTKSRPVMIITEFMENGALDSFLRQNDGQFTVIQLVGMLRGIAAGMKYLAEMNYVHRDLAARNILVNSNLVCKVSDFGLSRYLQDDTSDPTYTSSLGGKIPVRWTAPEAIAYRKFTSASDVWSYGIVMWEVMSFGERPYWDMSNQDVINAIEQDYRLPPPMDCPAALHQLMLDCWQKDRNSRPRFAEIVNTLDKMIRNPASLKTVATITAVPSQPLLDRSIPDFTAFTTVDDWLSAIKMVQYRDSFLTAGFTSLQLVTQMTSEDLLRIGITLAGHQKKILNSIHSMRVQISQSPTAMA

[9] = target: Jak2 (UniProt O60674); experiment: as above
[10] = target: FGFR1 (UniProt P11362); experiment: as above
[11] = test system: c-Abl (mouse); experiment: as above
[12] = target: Fyn (UniProt P06241); experiment: as above
Sequence of Fyn (P06241 whole entry, looked up): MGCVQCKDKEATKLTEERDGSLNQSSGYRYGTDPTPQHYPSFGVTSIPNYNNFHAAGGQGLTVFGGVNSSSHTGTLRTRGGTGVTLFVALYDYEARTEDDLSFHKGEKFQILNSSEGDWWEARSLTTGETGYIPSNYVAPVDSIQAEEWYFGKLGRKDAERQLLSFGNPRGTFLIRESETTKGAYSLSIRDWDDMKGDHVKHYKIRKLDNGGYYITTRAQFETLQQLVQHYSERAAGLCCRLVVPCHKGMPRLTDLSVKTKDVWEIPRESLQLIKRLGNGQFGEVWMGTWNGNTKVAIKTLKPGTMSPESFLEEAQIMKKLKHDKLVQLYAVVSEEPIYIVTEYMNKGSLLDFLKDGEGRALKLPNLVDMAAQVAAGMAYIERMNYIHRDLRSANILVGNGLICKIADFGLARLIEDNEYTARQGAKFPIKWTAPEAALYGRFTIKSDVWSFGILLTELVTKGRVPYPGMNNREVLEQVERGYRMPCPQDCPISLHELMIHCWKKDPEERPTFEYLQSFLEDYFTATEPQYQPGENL

[13] = target: Hck (UniProt P08631); experiment: as above
Sequence of Hck (P08631 whole entry, looked up): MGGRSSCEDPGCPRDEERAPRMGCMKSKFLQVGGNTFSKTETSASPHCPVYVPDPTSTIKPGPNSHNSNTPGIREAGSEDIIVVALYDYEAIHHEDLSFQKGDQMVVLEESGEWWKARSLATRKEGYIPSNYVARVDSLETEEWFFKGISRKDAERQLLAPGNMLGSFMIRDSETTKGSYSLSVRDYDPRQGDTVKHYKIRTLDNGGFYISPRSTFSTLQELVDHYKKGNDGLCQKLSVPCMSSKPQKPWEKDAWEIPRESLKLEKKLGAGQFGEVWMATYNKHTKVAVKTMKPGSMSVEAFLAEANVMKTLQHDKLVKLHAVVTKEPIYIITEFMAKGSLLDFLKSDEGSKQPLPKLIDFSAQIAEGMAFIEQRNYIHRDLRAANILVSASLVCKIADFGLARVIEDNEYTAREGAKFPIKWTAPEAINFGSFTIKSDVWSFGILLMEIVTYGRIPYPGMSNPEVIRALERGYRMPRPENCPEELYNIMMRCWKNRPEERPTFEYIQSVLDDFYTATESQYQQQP

[14] = test system: Fer (mouse); experiment: as above
[15] = target: FGFR3 (UniProt P22607); experiment: as above
[16] = target: MERTK (UniProt Q12866); experiment: as above
Sequence of MERTK (Q12866 whole entry, looked up, the tested form may be a part): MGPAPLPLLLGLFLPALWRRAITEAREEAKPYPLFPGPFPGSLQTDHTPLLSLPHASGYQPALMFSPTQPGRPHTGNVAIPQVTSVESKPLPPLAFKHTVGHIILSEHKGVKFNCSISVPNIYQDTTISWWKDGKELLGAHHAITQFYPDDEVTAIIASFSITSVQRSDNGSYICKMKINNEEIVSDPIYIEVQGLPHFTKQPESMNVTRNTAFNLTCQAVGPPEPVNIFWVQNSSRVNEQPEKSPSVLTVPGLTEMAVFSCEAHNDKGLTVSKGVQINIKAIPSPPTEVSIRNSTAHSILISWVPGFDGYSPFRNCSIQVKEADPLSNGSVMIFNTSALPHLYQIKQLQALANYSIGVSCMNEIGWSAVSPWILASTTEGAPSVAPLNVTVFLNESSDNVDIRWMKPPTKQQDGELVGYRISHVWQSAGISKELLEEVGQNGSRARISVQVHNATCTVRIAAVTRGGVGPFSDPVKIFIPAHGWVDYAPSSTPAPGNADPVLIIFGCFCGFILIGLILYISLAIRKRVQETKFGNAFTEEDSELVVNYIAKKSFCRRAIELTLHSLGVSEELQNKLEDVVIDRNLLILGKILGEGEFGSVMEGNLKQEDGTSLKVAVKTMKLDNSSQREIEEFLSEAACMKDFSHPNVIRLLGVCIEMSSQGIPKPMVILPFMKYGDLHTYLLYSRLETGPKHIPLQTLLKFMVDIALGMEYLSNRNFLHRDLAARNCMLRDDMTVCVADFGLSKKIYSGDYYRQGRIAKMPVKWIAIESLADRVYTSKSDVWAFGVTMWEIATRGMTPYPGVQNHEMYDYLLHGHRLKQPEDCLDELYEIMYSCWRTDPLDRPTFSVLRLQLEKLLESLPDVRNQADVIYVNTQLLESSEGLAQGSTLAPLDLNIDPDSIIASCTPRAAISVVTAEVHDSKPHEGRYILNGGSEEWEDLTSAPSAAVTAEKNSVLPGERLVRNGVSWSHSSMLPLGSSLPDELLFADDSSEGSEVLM
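Throughout, for SH2 binding enrichment of the phosphorylated peptide, bacterial display: peptide library displayed on the E. coli surface as eCPX fusions, selected cells deep-sequenced, score is each peptide's frequency after selection divided by its frequency in the input.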
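Throughout, for phosphorylation enrichment, bacterial display: 11-residue human phosphosite peptides and single-mutation variants displayed on the E. coli surface, counted by deep sequencing, each peptide's frequency after selection divided by its frequency in the unselected input library; frequency after pTyr selection over input frequency; kinase dosed for 20-30% of maximal phosphorylation in three min.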

Sequence	SH2 binding enrichment [1]	SH2 binding enrichment [2]	SH2 binding enrichment [3]	phosphorylation enrichment [4]	phosphorylation enrichment [5]	phosphorylation enrichment [6]	phosphorylation enrichment [7]	phosphorylation enrichment [8]	phosphorylation enrichment [9]	phosphorylation enrichment [10]	phosphorylation enrichment [11]	phosphorylation enrichment [12]	phosphorylation enrichment [13]	phosphorylation enrichment [14]	phosphorylation enrichment [15]	phosphorylation enrichment [16]
PLQSEYSSITT [ITGB4_Y1760]	0.57	0.952	0.696	2.18	2.13	1.77	1.89	3.14	0.814	1.08	1.28	1.58	1.92	1.83	1.58	1.77
PLSGEYFTLQI [TP53_Y327_D324S]	0.679	0.432	0.793	1.2	1.62	3.48	3.93	1.82	6.87	13.7	2.51	4.49	1.89	0.722	9.65	0.763
PLTRSYIREKV [CYP2C8_Y243_A238P]	0.904	0.351	0.923	0.484	0.413	0.448	0.582	0.276	0.591	0.341	0.305	0.474	0.312	0.262	0.48	0.406
PMDGEYFTLQI [TP53_Y327_L323M]	0.407	0.394	0.978	0.753	1.95	5.21	4.04	1.5	4.86	12	2.02	4.35	2.79	1.57	9.07	0.604
PMQLPYDSTWE [PDGFRB_Y589]	1.47	1.17	0.673	0.399	1.69	1.1	0.975	0.533	1.24	0.438	1.12	0.561	0.554	0.575	0.646	0.573
PNQRRYVYYYS [PTEN_Y174_S170N]	3.49	2.17	1.17	1.57	2.29	1.06	2.88	1.07	1.37	3	0.841	1.86	1.29	0.817	1.61	3.81
PQGVRYTYTID [DCX_Y103_I104T]	3.15	1.55	0.779	0.495	1.36	0.634	1.05	0.702	1.05	0.57	0.605	0.587	0.601	0.499	0.784	0.338
PTQLPYDHKWE [KIT_Y578]	0.575	0.524	0.923	0.631	1.33	0.618	0.859	0.716	0.68	0.581	0.655	0.491	0.87	0.601	0.696	0.449
QAQMDYRRLQP [MPL_Y591]	0.63	0.319	0.819	0.439	0.942	0.428	0.666	0.373	0.795	0.306	0.622	0.543	0.367	0.48	0.788	0.321

Now from value to sequence, other results behind:

SH2 binding enrichment [1]	SH2 binding enrichment [2]	SH2 binding enrichment [3]	Sequence	phosphorylation enrichment [4]	phosphorylation enrichment [5]	phosphorylation enrichment [6]	phosphorylation enrichment [7]	phosphorylation enrichment [8]	phosphorylation enrichment [9]	phosphorylation enrichment [10]	phosphorylation enrichment [11]	phosphorylation enrichment [12]	phosphorylation enrichment [13]	phosphorylation enrichment [14]	phosphorylation enrichment [15]	phosphorylation enrichment [16]
1.1	0.537	0.561	PPDGEYFTLQI [TP53_Y327_L323P]	1.14	1.74	5.4	3.41	1.19	3.69	12.4	2.33	3.74	2.75	1.41	10.2	0.902
0.734	0.629	1.19	PSAELYSNALP [PDGFRB_Y716]	1.91	1.79	1.38	1.55	2.63	0.849	1.79	0.96	1.66	3.02	7.66	1.73	7.96
0.838	0.945	0.926	PVADRYDQSFE [MAPK14_Y323_P322R]	0.695	1.5	0.717	0.867	0.475	1.1	0.653	0.844	0.589	0.441	0.518	0.796	0.448
0.926	0.484	0.841	PVLSLYASGRT [ACTA1_Y145_A140P]	0.548	1.19	0.573	1.14	0.637	1.39	0.328	1.31	0.616	0.768	0.539	0.703	0.752
0.659	1.57	0.962	PVPKTYDMLNA [PKP2_Y108_K112N]	0.622	1.11	0.83	0.866	0.512	1.04	0.597	1.05	0.666	1.07	0.542	0.737	1.14
0.516	0.706	0.795	PVQAAYQKVVA [HBB_Y131]	0.536	0.438	0.471	0.41	0.694	0.37	0.645	0.716	0.418	0.505	0.557	0.591	0.716
0.697	0.719	1.12	PVQAAYQKVVD [HBB_Y131_A136D]	1.06	1.01	0.458	0.831	0.493	0.577	0.655	0.432	0.621	0.931	0.384	0.515	0.38

— the supplement of paper PMC10065799, “High-throughput profiling of sequence recognition by tyrosine kinases and SH2 domains using bacterial peptide display” (eLife, 2023)
